The data set concerns the molecule itself. In words: SDS/PAGE with western blotting. In general terms: In western blotting, separated proteins are transferred to a membrane and probed.

B1: Pho89–Myc-His6 (full-length recombinant Saccharomyces cerevisiae high-affinity phosphate transporter Pho89 fusion protein) (natural protein, S. cerevisiae, UniProt P38361 1-574, looked up)
chain: MALHQFDYIFAIAMLFAFLDAFNIGANDVANSFASSISSRSLKYWQAMVLAGLCEFLGAVLAGARVSGTIKNNIIDSSIFTNDPAVLMLTMTSALIGSSCWLTFATAIGMPVSTTHSIVGGTIGAGIAAGGANGVVWGWSGVSQIIASWFIAPILAGAIAAIVFSISRFSVLEVKSLERSIKNALLLVGVLVFATFSILTMLIVWKGSPNLHLDDLSETETAVSIVLTGAIASIVYFIFFYPFYRRKVLDQDWTLKLIDIFRGPSFYFKSTDDIPPMPEGHQLTIDYYEGRRNLGTTVSVEDEENKAASNSNDSVKNKEDIQEVDLVRTETEPETKLSTKQYWWSLLKQGPKKWPLLFWLVISHGWTQDVIHAQVNDRDMLSGDLKGMYERSKFYDNRVEYIYSVLQAITAATMSFAHGANDVANATGPLSAVYVIWKTNTIGAKSEVPVWVLAYGGVALVIGCWTYGYNIIKNLGNKMILQSPSRGFSIELAVAITTVMATQLGIPTSTTQIAVGGIVAVGLCNKDLKSVNWRMVAWCYSGWFLTLPIAGLIAGIINGIILNAPRFGVEYQMT
On to B1, for which the binding result was “binds”.

(Values after PMC3633241 (The Febs Journal, 2013).)
